# In patent US20220363752A1 (VERSEAU THERAPEUTICS, published 2022):
# Numbering of substitutions follows the chain as printed. Primed or numbered codes have the meaning given here. Biotin′ = not defined here
# T1: LRRC25(21-40) biotin peptide (human, not fully specified; N-terminal NH2; C-terminal GGK-Biotin; native Cys changed to Ser)
# T1 peptide: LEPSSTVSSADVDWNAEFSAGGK
# T2: LRRC25(36-55) biotin peptide (human, not fully specified; N-terminal NH2; C-terminal GGK-Biotin; native Cys changed to Ser)
# T2 peptide: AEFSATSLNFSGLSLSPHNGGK
# T3: LRRC25(51-69) biotin peptide (human, not fully specified; N-terminal acetyl; C-terminal GGK-Biotin)
# T3 peptide: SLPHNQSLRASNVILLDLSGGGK
# T4: LRRC25(66-85) biotin peptide (human, not fully specified; N-terminal acetyl; C-terminal GGK-Biotin)
# T4 peptide: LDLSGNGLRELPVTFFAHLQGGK
# T5: LRRC25(81-100) biotin peptide (human, not fully specified; N-terminal acetyl; C-terminal GGK-Biotin)
# T5 peptide: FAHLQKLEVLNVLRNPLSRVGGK
# T6: LRRC25(96-115) biotin peptide (human, not fully specified; N-terminal acetyl; C-terminal GGK-Biotin; native Cys changed to Ser)
# T6 construct: also called Biotin LRRC25 (96-115) peptide
# T6 peptide: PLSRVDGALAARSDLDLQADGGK
# T7: LRRC25(111-130) biotin peptide (human, not fully specified; N-terminal acetyl; C-terminal GGK-Biotin; native Cys changed to Ser)
# T7 peptide: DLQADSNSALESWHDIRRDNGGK
# T8: LRRC25(126-145) biotin peptide (human, not fully specified; N-terminal acetyl; C-terminal GGK-Biotin; native Cys changed to Ser)
# T8 peptide: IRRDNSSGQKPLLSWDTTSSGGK
# T9: LRRC25(141-159) biotin peptide (human, not fully specified; N-terminal acetyl; C-terminal GGK-Biotin; native Cys changed to Ser)
# T9 peptide: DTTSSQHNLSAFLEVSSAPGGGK
# T10: LRRC25(150-165) biotin peptide (human)
# T10 peptide: Ac-SAFLEVSSAPGLASATGG-{Biotin′}
# B1: anti-LRRC25 chimeric antibody 1G08 (antibody, human IgG4, V domains shown)
# VH: DVQLVESGGGLVKPGGSLKLSCAASGFTFSNYAMSWVRQTPEKRLEWVASISRGGNTYYPDSVKGRFTISRDNARNILYLQMSSLRSEDTAIYYCTRGNYGSSPFAYWGQGTLVTVSA
# VL: DIVLTQSPASLAVSLGQRATISCRASESVDSYGNSFMHWYQQKPGQPPKLLIYLASNLESGVPARFSGSGSRTDFTLTIDPVEADDAATYYCQQNNEDPWTFGGGTKLEIKR
# B2: anti-LRRC25 chimeric antibody 4A03 (antibody, human IgG4, V domains shown)
# VH: B1 VH with Q3N, V5E, E6V, N31R, N56S, N73I, N76D, I92M, T96A, P104L
# VL: DIVMTQAAFSNPVTLGTSASISCRSSKSLLHSNGITYLYWYLQKPGQSPQLLIYQMSNLASGVPDRFSSSGSGTDFTLRISRVEAEDVGVYYCAQNLELPFTFGSGTKLEIKR
# B3: anti-LRRC25 chimeric antibody 3E01 (antibody, human IgG4, V domains shown)
# VH: EEKLEESGGGLVKPGGSLKLSCAVSGFTLSSYAMSWVRQTPEKRLEWVASISRGGNTYYPDSVKGRFTISRDNGRNILNLQMSSLRSEDTAIYYCTRGGGSTMITSLFAYWGQGTLVTVSA
# VL: B2 VL with S22F, F101Y, S105G
# B4: anti-LRRC25 chimeric antibody 3C01 (antibody, human IgG4, V domains shown)
# VH: B3 VH
# VL: DIVMTQDAPSVPVTPGESVSISCRSSKSLLHSNGNTYLYWFLQRPGQSPQLLIYRMSNLASGVPDRFSGSGSGTAFTLRISRVEAEDVGVYYCMQHLEYPFTFGSGTKLEIKR
# notes: also called ATCC PTA-126026
# B5: anti-LRRC25 chimeric antibody 3F04 (antibody, human IgG4)
# heavy: DVQLVESGGGLVKPGGSLKLSCAVSGFTLSSYAMSWVRQTPEKRLEWVASISRGGSTYYPDSVKGRFTISRDNGRNILNLQMSSLRSEDTAIYYCARGGGSTMITSLFAYWGQGTLVTVSAASTKGPSVFPLAPCSRSTSESTAALGCLVKDYFPEPVTVSWNSGALTSGVHTFPAVLQSSGLYSLSSVVTVPSSSLGTKTYTCNVDHKPSNTKVDKRVESKYGPPCPPCPAPEFLGGPSVFLFPPKPKDTLMISRTPEVTCVVVDVSQEDPEVQFNWYVDGVEVHNAKTKPREEQFNSTYRWSVLTVLHQDWLNGKEYKCKVSNKGLPSSIEKTISKAKGQPREPQVYTLPPSQEEMTKNQVSLTCLVKGFYPSDIAVEWESNGQPENNYKTTPPVLDSDGSFFLYSRLTVDKSRWQEGNVFSCSVMHEALHNHYTQKSLSLSLGK
# light: DIVMTQDAFSNPVTLGTSASISCRSSKSLLHSNGITYLYWYLQKPGQSPQLLIYQMSNLASGVPDRFSSSGSGTDFTLRISRVEAEDVGVYYCAQNLELPFTFGSGTKLEIKRTVAAPSVFIFPPSDEQLKSGTASVVCLLNNFYPREAKVQWKVDNALQSGNSQESVTEQDSKDSTYSLSSTLTLSKADYEKHKVYACEVTHQGLSSPVTKSFNRGEC
# Legend:
# [1] = molecular target: T1, LRRC25(21-40) biotin peptide; assay: peptide ELISA
# Description: (§1) To establish if functional chimera anti-LRRC25 antibodies recognize particular regions of LRRC25, ELISA experiments were performed using 10 plate-immobilized 16- to 20-mer overlapping LRRC25(ECD) biotin peptides (Table 7). Biotinylated human LRRC25-His served as a positive control. A typical ELISA was performed by coating overnight at 4° C., 3 ug/mL/25 ul per well of streptavidin (Jackson Immunoresearch, Cat. #016-030-084) in PBS in half-area high binding microtiter wells (Corning Cat. #3690). […] Biotin peptides or biotinylated human LRRC25-His protein were added in duplicate (2 ug/mL/25 ul per well) in assay buffer (blocking buffer containing 0.05% tween 20) and the plate incubated for 45 min at 37° C. The plate was washed as before, 20 nM anti-LRRC25 antibodies in assay buffer added in duplicate into appropriate wells, and the plate incubated as before. The plate was washed and HRP-conjugated secondary antibody in assay buffer added [25 ul per well; goat anti-human IgG (Jackson Immunoresearch, Cat. #715-035-150)], and incubated as before. Antibody bound to plate-immobilized peptide(s) or protein was determined at A450 nm using HRP substrate (3,3′,5,5′-tetramethylbenzidine (TMB); eBioscience; Cat. #00-4201-56); 100 μl/well).
# [2] = molecular target: T2, LRRC25(36-55) biotin peptide; assay: peptide ELISA
# Description: as §1
# [3] = molecular target: T3, LRRC25(51-69) biotin peptide; assay: peptide ELISA
# Description: as §1
# [4] = molecular target: T4, LRRC25(66-85) biotin peptide; assay: peptide ELISA
# Description: as §1
# [5] = molecular target: T5, LRRC25(81-100) biotin peptide; assay: peptide ELISA
# Description: as §1
# [6] = molecular target: T6, LRRC25(96-115) biotin peptide; assay: peptide ELISA
# Description: as §1
# [7] = molecular target: T7, LRRC25(111-130) biotin peptide; assay: peptide ELISA
# Description: as §1
# [8] = molecular target: T8, LRRC25(126-145) biotin peptide; assay: peptide ELISA
# Description: as §1
# [9] = molecular target: T9, LRRC25(141-159) biotin peptide; assay: peptide ELISA
# Description: as §1
# [10] = molecular target: T10, LRRC25(150-165) biotin peptide; assay: peptide ELISA
# Description: as §1
# [11] = molecular target: T11, His-tagged human LRRC25 extracellular domain protein, human LRRC25-His (human, UniProt Q8N386 21-165); assay: ELISA, plate-immobilized antigen
# T11 construct: The entry holds the extracellular domain, a GSG linker and the His tag; also called LRRC25(ECD)-HIS
# T11 sequence (Q8N386 other isoform, or with tags, fused parts or gaps): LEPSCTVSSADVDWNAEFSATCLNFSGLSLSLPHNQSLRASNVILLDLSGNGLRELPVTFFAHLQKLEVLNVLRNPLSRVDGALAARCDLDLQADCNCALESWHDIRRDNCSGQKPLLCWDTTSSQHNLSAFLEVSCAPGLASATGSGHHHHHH
# Description: To establish the relative binding strengths of anti-LRRC25 antibodies against human LRRC25, and their cross-reactivity with cynomolgus monkey LRRC25, antibody binding curve analyses were performed and EC50 values against plate-immobilized recombinant human and cyno LRRC25 proteins were determined.
# (§2) A typical ELISA was performed by coating overnight in PBS, pH 7.4, at 4° C. in high binding microtiter wells with 1 ug/mL/100 ul per well of human LRRC25-His or cyno LRRC25-His. An anti-human LRRC25 antibody (2A3, LS Bio, LS-C174039-100) and anti-HIS-HRP (Miltenyi Biotec; 130-092-783) served as coating controls for the human and cyno LRRC25 proteins, respectively. […] Anti-LRRC25 antibodies were added (100 ul per well) at 500 nM and serially diluted 3-fold in assay buffer (1% skimmed milk in PBS, pH 7.4). The plate was incubated with gentle agitation for 1 h at room temperature. The plate was washed 3× and HRP-conjugated secondary antibody in assay buffer added [100 ul per well; goat anti-human IgG (Jackson Immunoresearch, cat #715-035-150)], and the plate was incubated as before. Antibody bound to plate-immobilized LRRC25(ECD)-HIS was determined at A450 nm using HRP substrate (3,3′,5,5′-tetramethylbenzidine (TMB); eBioscience; 00-4201-56); 100 μl/well).
# [12] = molecular target: T12, His-tagged cynomolgus monkey LRRC25 extracellular domain protein, cyno LRRC25-His (cynomolgus monkey); assay: ELISA, plate-immobilized cyno LRRC25-His
# T12 construct: The entry holds the extracellular domain, a GSG linker and the His tag
# T12 sequence (chain, as listed by the source limits assumed): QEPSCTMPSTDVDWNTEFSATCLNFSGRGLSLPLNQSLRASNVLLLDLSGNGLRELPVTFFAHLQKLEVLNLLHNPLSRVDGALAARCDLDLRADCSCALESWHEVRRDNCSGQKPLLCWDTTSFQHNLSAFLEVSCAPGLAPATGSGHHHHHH
# Description: as §2
# [13] = molecular target: T13, biotinylated human LRRC25-His protein (human, UniProt Q8N386 21-165, biotinylated (sites not given)); assay: ELISA, 20 nM antibody, biotinylated antigen on streptavidin plate
# T13 construct: also called Biotin LRRC25-His; biotinylated LRRC25 protein
# T13 sequence (Q8N386 other isoform, or with tags, fused parts or gaps): as the sequence (Q8N386 other isoform, or with tags, fused parts or gaps) above
# Description: as §1
# [14] = molecular target: T6, LRRC25(96-115) biotin peptide; assay: as above
# Description: as §1
Binder,binding result [1],binding result [2],binding result [3],binding result [4],binding result [5],binding result [6],binding result [7],binding result [8],binding result [9],binding result [10],EC50 [11],binding result [12],absorbance (A450) [13],absorbance (A450) [14]
B1,no binding (tested: 20 nM),no binding (tested: 20 nM),no binding (tested: 20 nM),no binding (tested: 20 nM),no binding (tested: 20 nM),no binding (tested: 20 nM),no binding (tested: 20 nM),no binding (tested: 20 nM),no binding (tested: 20 nM),no binding (tested: 20 nM),3.2 nM,no binding (tested: 500 nM),0.324 A450,0.099 A450
B2,no binding (tested: 20 nM),no binding (tested: 20 nM),no binding (tested: 20 nM),no binding (tested: 20 nM),no binding (tested: 20 nM),no binding (tested: 20 nM),no binding (tested: 20 nM),no binding (tested: 20 nM),no binding (tested: 20 nM),no binding (tested: 20 nM),~100 nM,no binding (tested: 500 nM),0.251 A450,0.11 A450
B3,no binding (tested: 20 nM),no binding (tested: 20 nM),no binding (tested: 20 nM),no binding (tested: 20 nM),no binding (tested: 20 nM),no binding (tested: 20 nM),no binding (tested: 20 nM),no binding (tested: 20 nM),no binding (tested: 20 nM),no binding (tested: 20 nM),45.1 nM,no binding (tested: 500 nM),0.341 A450,0.11 A450
B4,no binding (tested: 20 nM),no binding (tested: 20 nM),no binding (tested: 20 nM),no binding (tested: 20 nM),no binding (tested: 20 nM),no binding (tested: 20 nM),no binding (tested: 20 nM),no binding (tested: 20 nM),no binding (tested: 20 nM),no binding (tested: 20 nM),30.3 nM,no binding (tested: 500 nM),0.354 A450,0.079 A450
B5,no binding (tested: 20 nM),no binding (tested: 20 nM),no binding (tested: 20 nM),no binding (tested: 20 nM),no binding (tested: 20 nM),no binding (tested: 20 nM),no binding (tested: 20 nM),no binding (tested: 20 nM),no binding (tested: 20 nM),no binding (tested: 20 nM),63 nM,no binding (tested: 500 nM),0.324 A450,0.156 A450
